# Data taken from patent publication US20220289850 (published 2022).
# B1: Mouse hybridoma ADWA-11 Fab (antibody, V domains shown)
# VH: EVQLQQSGAELVRPGAFVKLSCKASGFNIKDYYMNWVLQRPEQGLEWIGWIDPDNGNTIYDPKFQGKASITADTSSNTAYLQLSSLTSEDTAVYYCARRLLMDYWGQGTSVTVSS
# VL: DIVMTQAAPSVPVTPGESVSISCRSTKSLLHFNGNTYLFWFLQRPGQSPQRLIYYMSNLASGVPDRFSGRGSGTDFTLRISRVEAEDVGVYYCMQSLEYPFTFGTGTKLEIK
# B2: ADWA11 VH05/VK01 (VH05-2_VK01) Fab (antibody, V domains shown)
# VH: EVQLVESGGGLVQPGGSLRLSCAASGFNIKDYYMNWVRQAPGKGLEWVGWIDPDNGNTIYDPKFQGRFTISADTSKNSAYLQMNSLRAEDTAVYYCARRLLMDYWGQGTLVTVSS
# VL: DIQMTQSPSSLSASVGDRVTITCRSTKSLLHFNGNTYLFWYQQKPGKAPKRLIYYMSNLASGVPSRFSGSGSGTDFTLTISSLQPEDFATYYCMQSLEYPFTFGQGTKVEIK
# B3: ADWA11 2.4 Fab (antibody, V domains shown)
# VH: EVQLVESGGGLVQPGGSLRLSCAASGFNIKDYYMNWVRQAPGKGLEWVGWIDPDQGNTIYEPKFQGRFTISADTSKNSAYLQMNSLRAEDTAVYYCARRLLMDYWGQGTLVTVSS
# VL: DIQMTQSPSSLSASVGDRVTITCRSTKSLSHFNGNTYLFWYQQKPGKAPKRLIYYMSSLASGVPSRFSGSGSGTDFTLTISSLQPEDFATYYCQQSLEYPFTFGGGTKVEIK
# Molecular target: T1, cynomolgus integrin avb8 (cynomolgus)
# T1 chain 1: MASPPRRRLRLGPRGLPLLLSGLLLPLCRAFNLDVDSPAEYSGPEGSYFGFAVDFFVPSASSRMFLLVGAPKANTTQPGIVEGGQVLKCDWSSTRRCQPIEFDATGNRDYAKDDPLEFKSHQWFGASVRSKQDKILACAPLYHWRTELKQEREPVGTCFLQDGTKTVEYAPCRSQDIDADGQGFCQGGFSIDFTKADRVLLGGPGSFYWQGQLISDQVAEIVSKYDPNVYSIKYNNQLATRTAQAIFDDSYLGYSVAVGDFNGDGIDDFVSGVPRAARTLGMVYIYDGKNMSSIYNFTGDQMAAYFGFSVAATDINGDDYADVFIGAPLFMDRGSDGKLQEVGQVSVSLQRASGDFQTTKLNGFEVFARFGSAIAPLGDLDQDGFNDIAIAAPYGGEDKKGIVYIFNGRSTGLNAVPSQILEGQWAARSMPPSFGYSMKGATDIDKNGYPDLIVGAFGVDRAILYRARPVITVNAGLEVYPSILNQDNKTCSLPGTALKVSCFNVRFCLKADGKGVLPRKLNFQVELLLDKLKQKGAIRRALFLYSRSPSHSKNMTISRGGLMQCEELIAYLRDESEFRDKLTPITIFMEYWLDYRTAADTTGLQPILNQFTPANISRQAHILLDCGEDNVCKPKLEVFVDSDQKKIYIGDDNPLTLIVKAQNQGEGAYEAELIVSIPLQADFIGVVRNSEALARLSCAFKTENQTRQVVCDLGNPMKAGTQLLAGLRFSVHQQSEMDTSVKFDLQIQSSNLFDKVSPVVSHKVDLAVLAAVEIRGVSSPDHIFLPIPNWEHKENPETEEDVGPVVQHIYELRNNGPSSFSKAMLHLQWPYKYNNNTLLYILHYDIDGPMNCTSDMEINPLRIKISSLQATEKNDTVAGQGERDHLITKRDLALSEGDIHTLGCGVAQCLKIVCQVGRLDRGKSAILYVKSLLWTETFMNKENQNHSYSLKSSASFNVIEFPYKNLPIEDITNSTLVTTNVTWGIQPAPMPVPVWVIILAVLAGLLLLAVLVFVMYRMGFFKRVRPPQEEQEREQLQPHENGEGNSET
# T1 chain 2: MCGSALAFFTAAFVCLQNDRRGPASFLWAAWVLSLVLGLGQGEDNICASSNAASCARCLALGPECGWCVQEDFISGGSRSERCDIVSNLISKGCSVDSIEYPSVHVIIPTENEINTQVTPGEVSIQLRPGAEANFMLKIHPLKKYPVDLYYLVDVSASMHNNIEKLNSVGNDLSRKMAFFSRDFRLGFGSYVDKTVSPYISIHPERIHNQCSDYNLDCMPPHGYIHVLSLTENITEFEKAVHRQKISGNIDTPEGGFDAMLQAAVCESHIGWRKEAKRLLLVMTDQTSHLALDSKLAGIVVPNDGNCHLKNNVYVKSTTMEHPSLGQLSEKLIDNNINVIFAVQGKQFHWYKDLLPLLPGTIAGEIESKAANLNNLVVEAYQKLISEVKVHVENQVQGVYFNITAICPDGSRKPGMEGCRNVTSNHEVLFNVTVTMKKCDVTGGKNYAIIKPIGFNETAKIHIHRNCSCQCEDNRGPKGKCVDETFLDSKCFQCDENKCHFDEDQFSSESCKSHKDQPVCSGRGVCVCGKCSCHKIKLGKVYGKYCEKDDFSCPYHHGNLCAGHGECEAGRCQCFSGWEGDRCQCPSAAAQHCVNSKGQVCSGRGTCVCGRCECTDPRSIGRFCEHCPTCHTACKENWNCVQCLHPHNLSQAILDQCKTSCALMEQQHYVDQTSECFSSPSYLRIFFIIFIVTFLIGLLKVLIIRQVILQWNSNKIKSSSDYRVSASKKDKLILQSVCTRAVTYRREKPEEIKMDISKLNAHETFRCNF
# Test: SPR 25C
binder,measurement,value
B1,Kd,0.507 nM
B2,Kd,< 0.1 nM
B3,Kd,< 0.2 nM
